For one experiment, the target named is T1, DGI-2 (Homo sapiens, UniProt Q15004).
T1 construct: encompassed the entire DGI-2 open reading frame (ORF); His-tag of vector pIVEX2.3-MCS (inferred from the vector and from the reverse primer lacking a stop codon); made in house; host or cells: cell-free in vitro translation (Rapid Translation System RTS, Roche; E. coli lysate)
T1 sequence (Q15004 1-111): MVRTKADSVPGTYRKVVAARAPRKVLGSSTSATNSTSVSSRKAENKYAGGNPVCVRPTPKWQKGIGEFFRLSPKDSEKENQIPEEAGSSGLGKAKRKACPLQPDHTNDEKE
Description: ELISA analysis of phage on DGI-2 polypeptide (specific binding). The conditions noted are these: for DGI-2 (OD): binding to DGI-2 polypeptide (specific binding), phage ELISA units read at 405 nm; for DGI-2/LDH (OD): ratio of specific binding to non-specific binding. The protocol:
To verify that the selected target binders bound to DGI-2, Elisa assays were performed with recombinant DGI-2. DGI-2 was subcloned and expressed using conventional methods as described below.
Protein yields were satisfactory, but most of protein was found in inclusion bodies. Next, DGI-2 was expressed using an in vitro translation system (Rapid Translation System RTS 5000, Roche Diagnostics GmbH, Mannheim Germany). For this system, the DGI-2 ORF was cloned into the pIVEX2.3-MCS vector (Roche Diagnostics) using restriction sites Nde I and Hind III, which were added to DGI-2 by PCR. […] The primers used for the PCR amplification were as follows: […]
(§1) For analysis of individual target binders, colonies were picked and phage prepared as described above using helper phage, M13KO7. Ninety-six-well microtiter plates were coated with 500 ng/well of specific target protein, 500 ng/well lactate dehydrogenase (LDH) irrelevant or non-specific target, 500 ng/well of positive control antibody raised against ETAG, and negative control of non-fat milk powder-PBS 2% at 4° C. overnight. Plates were then blocked with 350 microliters/well PBS containing 2% non-fat milk for 1 hr at room temperature. One hundred microliters per well of phage from isolated clones were added and plates were incubated at room temperature for 2 hr after centrifuging samples for 20 minutes at 3500 rpm at 4° C. The phage solution was then removed, and the wells were washed three times with PBS at room temperature. Antibody raised against M13 conjugated to horseradish peroxidase (Pharmacia) was diluted 1:3000 in PBS-Tween and added to each well (100 μl/well). Incubation was for 1 hr at room temperature, followed by washing with PBS-(0.5%) Tween 3 times as described. Color was developed by addition of ABTS solution (100 μl/well; Boehringer, Indianapolis, Ind.). Plates were analyzed at 405 nm. A clone was considered “positive” if the A405 of the well was ≧2-fold over background.
(In an ELISA, binding on a coated surface is turned into a signal by an enzyme label.)

In experiment [1] the test system is lactate dehydrogenase (LDH). Description: ELISA analysis of phage on LDH (irrelevant, non-specific target). The format is binding. The note with it: peptide binding to LDH polypeptide (non-specific binding); phage ELISA units read at 405 nm. The protocol:
as §1

Another experiment deals with E-tag antibody. Description: ELISA analysis of phage on antibody raised against ETAG (positive control). The conditions noted are these: peptide binding to E-tag antibody; phage ELISA units read at 405 nm. The protocol: as §1

Take “FGRDGDGIQRRQGGFSWVGDR (DGI-2-20F-PP-E2; listed as Escherichia coli)”: in the experiment with DGI-2, the “DGI-2 (OD)” value turned out to be 1.7 OD and the “DGI-2/LDH (OD)” value is 2.4. For the same sequence, the “LDH (OD)” value in experiment [1] stood at 0.7 OD. In addition, in the experiment on E-tag antibody, the “ETAG (OD)” value turned out to be 11.6 OD.
Taken in the same sequence, the figures for “FGSTAYADMLSQFRKFAMNIS (DGI-2-20F-PP-E1; listed as Escherichia coli)” were 1.8 OD, 1.9, 1.0 OD and 33.4 OD.
Taken in the same sequence, the figures for “FRMWVQSCFWGQPGTGCGEG (DGI-2-20R-3-D2; listed as Escherichia coli)” were 7.9 OD, 7.5, 1.1 OD and 14.3 OD.
For “FRVALLSVSAGPCEGSGNT (DGI-2-20F-PP-H7; listed as Escherichia coli)”, in that order: 1.8 OD, 2.1, 0.8 OD and 3.7 OD.
“FSSTGILLRSGRATAVGHVT (DGI-2-20F-3-A6; listed as Escherichia coli)”: in the experiment with DGI-2, the “DGI-2 (OD)” value was found to be 1.5 OD and the “DGI-2/LDH (OD)” value is 1.4. For the same sequence, the “LDH (OD)” value in experiment [1] is given as 1.1 OD. For the same sequence, the “ETAG (OD)” value in the experiment with E-tag antibody is 13.2 OD.
Turning to “FSSVLGLLDRRGVPVVVGED (DGI-2-20F-3-C3; listed as Escherichia coli)”, in the experiment with DGI-2, the “DGI-2 (OD)” value is 1.1 OD and the “DGI-2/LDH (OD)” value came out at 1.1. Further, the “LDH (OD)” value in experiment [1] is reported as 0.9 OD. Besides, in the experiment on E-tag antibody, the “ETAG (OD)” value turned out to be 11.6 OD.
Taken in the same sequence, the figures for “GAIRLSGAAWTASRTGGRAS (DGI-2-20F-PP-E7; listed as Escherichia coli)” were 1.6 OD, 1.8, 0.9 OD and 21.5 OD.
Turning to “GASRVVDVGWRFWGKLWQRS (DGI-2-20F-PP-G5; listed as Escherichia coli)”, in the experiment with DGI-2, the “DGI-2 (OD)” value came to 2.4 OD and the “DGI-2/LDH (OD)” value amounted to 2.0. Moreover, the “LDH (OD)” value in experiment [1] is on record as 1.2 OD. Also, the “ETAG (OD)” value in the experiment on E-tag antibody amounted to 27.7 OD.
For “GEVDCVYALTHRFLSPQVQYHIHRPV (GEVDCVYALTHRFLSPQVQYHHRPV; DGI-2-20C-3-A12; listed as Escherichia coli)”, in that order: 0.9 OD, 1.0, 0.9 OD and 8.1 OD.
For “GGDLGEQGVQLCPDVVRGGSL (DGI-2-20F-PP-A7; listed as Escherichia coli)”, in that order: 2.6 OD, 2.8, 0.9 OD and 42.2 OD.
For “GGGRESWGGGWFMGWGSGAG (DGI-2-20R-3-A6; listed as Escherichia coli)”, in that order: 5.8 OD, 5.9, 1.0 OD and 17.7 OD.
Turning to “GGSLPVKSGQLVTCCTSKGG (DGI-2-20F-PP-F5; listed as Escherichia coli)”, in the experiment with DGI-2, the “DGI-2 (OD)” value was 2.3 OD and the “DGI-2/LDH (OD)” value is reported as 2.5. Besides, in experiment [1], the “LDH (OD)” value is reported as 0.9 OD. Besides, in the experiment on E-tag antibody, the “ETAG (OD)” value worked out at 16.3 OD.
For “GHGAGDWAAELFVCPVAFLTGFAWR (DGI-2-20R-4-H2; listed as Escherichia coli)”, in that order: 9.9 OD, 9.2, 1.1 OD and 12.9 OD.
For “GIMQVAWGWREMTRLWDLGMA (GIMQVAWGWREWRLWDLGMA; DGI-2-20R-3-C6; listed as Escherichia coli)”, in that order: 6.0 OD, 5.2, 1.1 OD and 20.3 OD.
Taken in the same sequence, the figures for “GITGLFCLCLRSSQSI (DGI-2-20F-PP-D6; listed as Escherichia coli) [DGI-2-20F-P0P-D6]” were 3.3 OD, 3.2, 1.0 OD and 5.7 OD.
Consider “GLEPVPFQTDKRIAMGWTREWLVNGYGAAHRRDARMQSGH (DGI-2-40F-3-D6; listed as Escherichia coli)”, for which, in the experiment with DGI-2, the “DGI-2 (OD)” value was determined as 2.5 OD and the “DGI-2/LDH (OD)” value stood at 2.6. Also, the “LDH (OD)” value in experiment [1] turned out to be 1.0 OD. The “ETAG (OD)” value in the experiment on E-tag antibody is given as 11.4 OD.
For “GLLFTSSPYQCFWVHCTLTMSPLSVLGDLSSTIGRMRASR (DGI-2-40F-3-C52; listed as Escherichia coli)”, in that order: 1.0 OD, 1.3, 0.8 OD and 4.6 OD.
For “GLRACDTYLGFCVGARRIDD (DGI-2-20F-3-B102; listed as Escherichia coli)”, in that order: 2.4 OD, 2.5, 1.0 OD and 18.0 OD.
For “GLYQRGLAPRCRGERFGVRN (DGI-2-20F-PP-C2; listed as Escherichia coli)”, in that order: 2.7 OD, 2.5, 1.1 OD and 6.0 OD.
Regarding “GLYRRAGDASVGFSRWGREDCQVYFSVECLLGSSWGGYS (GLYRRAGDASVGFSRWGRFDCQVYFSVECLLGSSWGGYS; DGI-2-40F-4-F12; listed as Escherichia coli)”, in the experiment with DGI-2, the “DGI-2 (OD)” value stood at 2.2 OD and the “DGI-2/LDH (OD)” value is 2.5. Also, the “LDH (OD)” value in experiment [1] is 0.9 OD. The “ETAG (OD)” value in the experiment on E-tag antibody came out at 8.7 OD.
For “GMWIRPNGHMELQGGYTARS (GMWIRPNGHMFLQGGYTARS; DGI-2-20R-4-G8; listed as Escherichia coli)”, in that order: 1.5 OD, 1.4, 1.1 OD and 14.5 OD.
Turning to “GNKCFPPHDLFWDPCDQLQS (DGI-2-20R-4-F6; listed as Escherichia coli)”, in the experiment with DGI-2, the “DGI-2 (OD)” value is given as 2.3 OD and the “DGI-2/LDH (OD)” value is recorded as 2.3. Besides, the “LDH (OD)” value in experiment [1] is on record as 1.0 OD. Besides, in the experiment with E-tag antibody, the “ETAG (OD)” value is 13.2 OD.
For “GQISLAGVAVCSSERMLLAFSSRVFLPGLKVPVTTSQRGS (DGI-2-40F-3-A8; listed as Escherichia coli)”, in that order: 0.8 OD, 1.1, 0.8 OD and 1.5 OD.
On to “GRAGTSMTELVAWGFVQRVG (DGI-2-20F-PP-H10; listed as Escherichia coli)”, for which, in the experiment with DGI-2, the “DGI-2 (OD)” value stood at 1.4 OD and the “DGI-2/LDH (OD)” value was found to be 1.9. In experiment [1], the “LDH (OD)” value was found to be 0.7 OD. The “ETAG (OD)” value in the experiment on E-tag antibody was 13.0 OD.
Taken in the same sequence, the figures for “GRWDGWEVCGIWGADDCASG (DGI-2-20R-4-H1; listed as Escherichia coli)” were 9.3 OD, 7.8, 1.2 OD and 14.0 OD.

The values above are taken from patent publication US7056679B2, “Target specific screening and its use for identifying target binders” (Antyra, Inc., priority 2001, dated 2006).
